This is an account of results in patent US20170319722A1.

The target in experiment [1] is His-tagged CD8α human recombinant protein (TP760215, Origene) (human) (UniProt P01732). Put plainly: sandwich ELISA; biotinylated ligand on NeutrAvidin plate, His-tagged CD8α titrated, anti-His-AP detection.
In experiment [2] the target is CD8 on human peripheral blood mononuclear cells (PBMCs) (human) (UniProt P01732). Put plainly: flow cytometry, human PBMCs, co-stained with CD3-APC mAb.
Chain of CD8 on human peripheral blood mononuclear cells (PBMCs) (human) (P01732 22-235): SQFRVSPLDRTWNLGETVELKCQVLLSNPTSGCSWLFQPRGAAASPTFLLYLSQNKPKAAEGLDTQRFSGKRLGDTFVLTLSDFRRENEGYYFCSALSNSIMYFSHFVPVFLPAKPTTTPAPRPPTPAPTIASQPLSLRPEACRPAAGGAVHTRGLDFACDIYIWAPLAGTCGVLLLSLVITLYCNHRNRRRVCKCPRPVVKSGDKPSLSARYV

Chain of His-tagged CD8α human recombinant protein (TP760215, Origene) (human) (P01732 22-182 limits assumed): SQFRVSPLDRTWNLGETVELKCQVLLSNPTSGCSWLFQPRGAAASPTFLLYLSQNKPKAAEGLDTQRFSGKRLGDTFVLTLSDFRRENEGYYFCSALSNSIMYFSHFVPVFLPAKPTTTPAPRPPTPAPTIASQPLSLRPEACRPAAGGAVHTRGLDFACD

For orientation: EC50 means the concentration needed to bring the measured effect to its halfway point. With biotin-PEG3-Cy(slrfG) (peptide), the EC50 in experiment [1] was determined as 20 nM.

Turning to biotin-PEG3-Cy(yGGvr) (peptide), the EC50 in experiment [1] stood at 10 nM.

“human CD8-FITC mAb (clone: RPA-T8) (#561947, BD Biosciences) (antibody)”: in experiment [2], the % of cells detected (Q2) is 11.2% and the % of cells detected (Q4) was 2.1%.
